The source of these data is patent publication US20100297135A1 (CRC FOR ASTHMA AND AIRWAYS, published 2010).

In test [1] the target is T1, wild type human GM-CSF (human, UniProt P04141 18-144). In words: cell-based or functional assay.
The target in the next test is T2, murine GM-CSF (murine, UniProt P01587 18-141).
T2 construct: also called wild type murine GM-CSF
T2 sequence (looked up): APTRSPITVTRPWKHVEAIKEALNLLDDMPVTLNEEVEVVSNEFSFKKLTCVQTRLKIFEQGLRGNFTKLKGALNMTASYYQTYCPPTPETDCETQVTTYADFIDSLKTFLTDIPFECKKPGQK
Briefly: semi-quantitative ELISA (data not shown).

Test [2] deals with T1, wild type human GM-CSF. In words: SPR (Biacore), human GM-CSF coated on CM5 chip, antibody injected. The procedure: (§1) Recombinant human GM-CSF was coated onto a CM5 chip to determine the binding kinetics of 4K21 mAb. An uncoated flow cell was used as a reference. The antibody, prepared in HBS-EP at concentrations of 66.7 nM to 4.17 nM with 2-fold serial dilution, was injected for 2 minutes with a stabilisation time of 10 minutes and dissociation time of 15 minutes. The BIACore kinetic analysis wizard was run to determine each antibody's association (ka [1/Ms]), dissociation (kd[1/s]) and affinity (KD [nM]) to GM-CSF. […] Moreover, binding of 4K21 mAb to human GM-CSF is highly specific.

Test [3] has as its target T1, wild type human GM-CSF. Briefly: SPR (Biacore), alternative method of antibody capture; alternative method of antibody capture. On the technique in general: SPR reads the build-up and loss of mass on a sensor chip optically.
Test [4] concerns the target T1, wild type human GM-CSF. Briefly: SPR (Biacore), human GM-CSF coated on CM5 chip, antibody injected; GM-CSF coated onto CM5 chip, antibody injected. How it is done: as §1
Test [5] deals with T3, human GM-CSF mutant M2 (R24 to M37 replaced by murine sequence) (human).
T3 construct: The flanking ranges are derived from the stated region
Briefly: semi-quantitative ELISA; GM-CSF polypeptide coated in 2-fold dilutions (x axis = coating concentration), 4K21 fixed at 12.5 ng/ml, goat anti-mouse IgG-HRP, absorbance 450 nm. The procedure: (§2) The binding analysis of 4K21 to the mutant GM-CSF polypeptides M1 to M5b was performed using a semi-quantitative ELISA. Approximately equal amounts of GM-CSF were used to coat a Maxisorb (Nunc. Cat #464718) 384 well plate and serially diluted 2-fold to the bottom of the plate (16 times). Coating was performed overnight at room temperature. Plates were washed 3 times with wash buffer (1×PBS, 0.05% tween) and blocked for 1 hr at 37° C. with PBS, 1% BSA solution. Plates were then washed 3 times with wash buffer. […] The plates were washed 3 times with wash buffer then secondary antibody, HRP conjugated goat anti mouse IgG (Jackson Cat #115-036-062) for 4K21 and rabbit anti rat IgG (BD, cat#P0450) for the BD commercial antibody was added to the wells at 1/5000 dilution and incubated at 37° C. for 1 hr. Plates were washed 4 times following which BD OptEIA TMB substrate (Cat #555214), prepared according to the manufacturer's instructions, was added to the wells and incubated at room temperature for 10 minutes. The reaction was stopped with 1M sulphuric acid and the plate read on a Tecan plate reader at 450 nm with reference filter at 620 nm.
In general terms: In an ELISA, binding on a coated surface is turned into a signal by an enzyme label.

The target of another test is T4, S96A.
T4 construct: also called human GM-CSF alanine mutant S96A
Briefly: semi-quantitative ELISA; GM-CSF polypeptide coated in serial dilutions (x axis = log coating concentration, no unit), 4K21 fixed at 12.5 ng/ml, goat anti-mouse IgG-HRP, absorbance. The procedure:
as §2
(§3) Binding analysis was carried out essentially as described above with the exception of the method of quantitation. The BD antibody was used to quantitate the relative expression of the alanine mutants as none of these mutants were in the M2 binding epitope of the BD antibody. […] The binding was then compared to 4K21 used at 12.5 ng/ml with the secondary antibody being goat anti-mouse IgG-HRP antibody (Cat #115-036-062) at 1/2500 dilution.

A further test addresses T5, T99A.
T5 construct: also called human GM-CSF alanine mutant T99A; the BD entry of the legend box prints 'T97A'
The description is as above. How it is done: as §2, §3

The next test has as its target T6, Q100A.
T6 construct: also called human GM-CSF alanine mutant Q100A
The description is as above. How it is done: as §2, §3

Test [6] deals with human GM-CSF alanine mutant C89A (human, UniProt P04141 18-144). The description is as above. The procedure:
as §2, §3

The target in test [7] is human GM-CSF alanine mutant I101A (human, UniProt P04141 18-144). Described as above. How it is done:
as §2, §3

T1 sequence (P04141 other isoform, or with tags, fused parts or gaps limits assumed): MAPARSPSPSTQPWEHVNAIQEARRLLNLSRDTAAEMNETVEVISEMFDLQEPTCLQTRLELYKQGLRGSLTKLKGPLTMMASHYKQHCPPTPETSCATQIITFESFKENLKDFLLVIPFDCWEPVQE
T6 sequence (single chain, as listed by the source Q100A Q100A): as the sequence (P04141 other isoform, or with tags, fused parts or gaps limits assumed) above, with Q100A counted along it
T4 sequence (single chain, as listed by the source S96A S96A): as the sequence (P04141 other isoform, or with tags, fused parts or gaps limits assumed) above, with S96A counted along it
Chain of human GM-CSF alanine mutant I101A (P04141 other isoform, or with tags, fused parts or gaps I101A I101A limits assumed): as the sequence (P04141 other isoform, or with tags, fused parts or gaps limits assumed) above, with I101A counted along it
Chain of human GM-CSF alanine mutant C89A (P04141 other isoform, or with tags, fused parts or gaps C89A C89A limits assumed): as the sequence (P04141 other isoform, or with tags, fused parts or gaps limits assumed) above, with C89A counted along it
T5 sequence (single chain, as listed by the source T99A T99A): as the sequence (P04141 other isoform, or with tags, fused parts or gaps limits assumed) above, with T99A counted along it
T3 sequence (P04141 other isoform, or with tags, fused parts or gaps mutant): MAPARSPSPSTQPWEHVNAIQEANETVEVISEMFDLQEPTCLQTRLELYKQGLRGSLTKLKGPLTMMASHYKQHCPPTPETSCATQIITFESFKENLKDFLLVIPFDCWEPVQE

B1: murine anti-human GM-CSF monoclonal antibody 4K21-O11-E14 (antibody, V domains shown)
VH: EVQLVESGGGLVKSGGSLKLSCAASGFAFSAYDMSWVRQTPEKRLELVAYISSGGSSFYYPDTVKGRFTISRDNAKNTLYLQMSSLKSEDTAMYYCTRHLGFDYWGQGTTLTVSS
VL: DVVMTQTPLSLPVSLGDQASISCRSSQSLVNSNGNTYLHWFLQKPGQSPKLLIYKVSNRFSGVPDRFSGSGSGTDFTLKISRVEAEDLGVYFCSQSTHVPPTFGGGTKLEIK
notes: Murine monoclonal antibody from a hybridoma (ECACC 07051601), detected with anti-mouse IgG; also called 4K21 mAb; mAb 4K21
Take B1: the “IC50, neutralisation of human GM-CSF dependent TF-1 cell growth (3H-thymidine)” value in the test with wild type human GM-CSF [1] is ~0.308 nM. Further, the binding result was “no binding” with murine GM-CSF; “binds” with S96A; “binds” with T99A; “binds” in the test with Q100A; “binds” in [6]; “binds” in test [7]. Further, the Ka in the test with wild type human GM-CSF [2] is > 5.9e+09 M⁻¹. Further, the equilibrium dissociation constant (Kd) is < 0.17 nM with wild type human GM-CSF [2], ~0.43 nM with wild type human GM-CSF [3] and ~0.2 nM with wild type human GM-CSF [4]. In addition, the koff with wild type human GM-CSF [2] was < 1e-05 s⁻¹. This molecule registered a kon with wild type human GM-CSF [2] of 59000 M⁻¹ s⁻¹. Also, the “EC50 (read off the curve)” value in test [5] was ~20 µg/mL.

Broadly, the Kd is the free concentration of one partner at which half of the binding sites on the other are occupied at equilibrium, for simple one-to-one binding. By koff is commonly meant a measure of how fast the partners let go of each other. Usually kon stands for a measure of how fast the partners come together. Low readings indicate slow association, high ones fast association. A word on the EC50 (read off the curve): it is the midpoint of the concentration-response curve. Higher therefore signals lower potency in that assay.
